What was measured:
[1] = tested on: T1, gluten immunogenic peptide 26-mer from γ-gliadin
T1 sequence: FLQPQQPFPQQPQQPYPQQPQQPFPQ

[2] = tested on: T2, gluten immunogenic peptide 33-mer from α-gliadin
T2 sequence: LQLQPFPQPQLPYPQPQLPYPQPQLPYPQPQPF

[3] = tested on: T3, aspartic protease Rhodotorulapepsin
T3 sequence: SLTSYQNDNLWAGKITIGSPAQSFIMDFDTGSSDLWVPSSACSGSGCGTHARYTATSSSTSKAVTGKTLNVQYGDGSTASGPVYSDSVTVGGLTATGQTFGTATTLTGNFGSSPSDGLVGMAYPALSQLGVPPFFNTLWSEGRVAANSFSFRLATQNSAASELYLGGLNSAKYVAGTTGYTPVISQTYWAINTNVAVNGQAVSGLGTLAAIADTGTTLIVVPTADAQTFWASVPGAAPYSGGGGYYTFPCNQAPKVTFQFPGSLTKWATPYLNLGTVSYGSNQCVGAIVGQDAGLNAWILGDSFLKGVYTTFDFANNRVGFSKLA

pepsin
hydrolysis of the 26-mer, RP-HPLC (pH 3.0 and pH 5.0) [1]: gluten immunogenic peptides 26-mer and 33-mer were not degraded after the same reaction time
hydrolysis of the 33-mer, RP-HPLC (pH 3.0 and pH 5.0) [2]: gluten immunogenic peptides 26-mer and 33-mer were not degraded after the same reaction time
resistance of the protease to pepsin hydrolysis, inferred from gliadin hydrolysis in the presence of pepsin [3]: the aspartic protease Rhodotorulapepsin is resistant to pepsin hydrolysis
hydrolysis of gliadin 7.5 mg/ml, SDS-PAGE (pH 3.0, 3 h) (gliadin): when only 250 µg/ml of pepsin was included in the enzyme mixture, gliadin was not completely hydrolyzed
hydrolysis of gliadin, SDS-PAGE of residual gliadin (pH 3.0, 37° C., enzyme:gliadin 1:500) (gliadin): gliadin was not hydrolyzed by pepsin even after 150 minutes of reaction
relative activity to hydrolyze gliadin, ELISA of residual gliadin (pH 2.5, 1.5 h, pepsin 1 mg/ml) (gliadin): the relative activity of the simulated gastric acid environment to hydrolyze gliadin is 13%
